In patent publication US20200385425A1:

Target: PDZ1/2 domain (Homo sapiens (Human)) (UniProt P78352)
Assay: SPR, Biacore 3000, PDZ1/2 amine-coupled on CM5 chip, peptide as analyte, 1:1 binding model

Chain of PDZ1/2 domain (Homo sapiens (Human)) (P78352 65-246 limits assumed): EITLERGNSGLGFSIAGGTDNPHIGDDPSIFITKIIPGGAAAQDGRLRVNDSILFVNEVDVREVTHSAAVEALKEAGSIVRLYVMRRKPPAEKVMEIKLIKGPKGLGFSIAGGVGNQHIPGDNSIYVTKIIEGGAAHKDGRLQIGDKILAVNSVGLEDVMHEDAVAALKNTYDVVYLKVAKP

Q: With control chimeric peptide NA-1 as the substance, how does the Kd read?
A: Its Kd is 75.3 nM.
